In PMC10140343 one finds stoichiometry N data, which are given here for one substance.

This test deals with recombinant ScCD8α extracellular IgSF V domain (Ser20-Met163) (small-spotted catshark (Scyliorhinus canicula)). The test can be described thus: native gel or EMSA; PAGE under non-reducing conditions of purified recombinant ScCD8α; Tris-Gly buffer pH 4.4, ice-water bath, 120 V, 2 h; band of approx. 32 kDa against approx. 16 kDa in reducing SDS-PAGE.

As to “recombinant ScCD8α extracellular IgSF V domain (Ser20-Met163) (domain or fragment)”, the stoichiometry N (usually the number of molecules, sites or subunits per partner or assembly) is 2.
